Experimental data from patent US7193044B1, “Compounds and methods for regulating apoptosis, and methods of making and screening for compounds that regulate apoptosis” (Immunogen, Inc., priority 2000, dated 2007).

How the values were obtained:
[1] = target: T1, PKA (catalytic subunit from bovine heart) (Bos taurus, UniProt P00517); experiment: In vitro kinase assay, phosphorylation of BAD and BAD mutants by PKA; format: biochemical; conditions: for in vitro phosphorylation by PKA: purified GST-tagged polypeptides, gamma-32P-ATP, autoradiography
T1 construct: 11 units PKA (catalytic subunit from bovine heart, Calbiochem); purchased Calbiochem; host or cells: bovine heart
Procedure: The ability of full-length BAD and mutant BAD S155A to bind Bcl-XL was also determined (FIG. 3(c)). Full-length BAD (“WT”) and mutant BAD S155A (“S155A”) were produced by in vitro translation and labeled with ^35S-methionine therein. The labeled proteins were then incubated with PKA (“+”) in the presence of unlabeled ATP or a buffer control (“−”). Following the kinase reactions, aliquots of each sample of the four samples were incubated with either GST or GST-Bcl-XL. The protein complex were captured on glutathione-agarose beads. Proteins bound to the beads (“Bound”) (lower panel) and samples of the reactions collected prior to incubation with the beads (“Total”) (upper panel) were analyzed by SDS-PAGE followed by autoradiography.
The GST-tagged BAD and BAD mutants were then expressed individually in cells and the purified GST-tagged polypeptides incubated with purified PKA, in the presence of ^32P radiolabel. A western blot, probed with anti-BAD antibody, was performed on the incubated GST-tagged BAD and BAD mutants to determine whether PKA could phosphorylate the BAD and/or mutant BAD in vitro. The GST-tagged BAD and BAD mutants phosphorylated by PKA could be detected directly by autoradiography due to the incorporation of ^32P radiolabel when the polypeptides were phosphorylated (FIG. 4, upper panel), whereas the total amount of BAD and mutant BAD present in the in vitro reaction was detected by the anti-BAD antibody probe (FIG. 4, lower panel).
In vitro kinase assays were carried out in 30 μl volumes containing 10 mM HEPES buffer, pH 7.5, 100 mM NaCl, 12 mM MgCl2, 1 mM dithiothreitol, […] γ^32P-ATP ([…], NEN), 11 units PKA (catalytic subunit from bovine heart, Calbiochem), and 1 μg purified GST-BAD. Reactions were incubated for 30 min at 30° C. and terminated by the addition of SDS-PAGE sample buffer. Samples were run on a 4–20% SDS-PAGE gel (Novex), transferred to a nitrocellulose membrane and phosphorylated GST-BAD was visualized by autoradiography. To verify that equal amounts of GST-BAD substrates were used, the nitrocellulose was subjected to western blot analysis with 133 ng/ml anti-BAD antibody (C-20).

[2] = test system: HeLa cells; experiment: Fluorescence-based beta-galactosidase assay of BAD-induced cell death in transfected HeLa cells; parameters: species or system human; conditions: SFM vs SFM+EGF, 12 hours
Procedure: FIG. 12(B) is a graphic representation of the results of a β-galactosidase assay. HeLa cells were co-transfected with the β-galactosidase gene and either HA-BAD (“WT”), HA-BAD S155A (“S155A”), HA-BAD S112A/S136A (“S112A/S136A”) or HA-BAD S112A/S136A/S155A (“AAA”). Transfected cells were then cultured in serum-free medium (SFM) or SFM supplemented with EGF (SFM+EGF) for 12 hours. Cell lysates were prepared and BAD-induced cell death was measured by the loss of β-galactosidase activity in a fluorescence-based assay. Fluorescence was measured at 465 nm. Results shown are the average and standard deviation of triplicate transfections (this experiment was repeated two more times with similar results). Expression levels of HA-tagged BAD and BAD mutants in transfected cell lysates were detected by anti-HA western blot analysis: HA-BAD (“WT”), HA-BAD S155A (“A”), HA-BAD S112A/S136A (“AA”), and HA-BAD S112A/S136A/S155A (“AAA”).
FIG. 12(C) is a graphic representation of the results of a β-galactosidase assay. HeLa cells were co-transfected with the β-galactosidase gene and either an empty vector (“CTL”), wild-type BAD (“WT”), the BAD S155A mutant (“S155A”) or the BAD S155D mutant (“S155D”). Cell lysates were prepared and BAD-induced cell death was measured by the loss of β-galactosidase activity in a fluorescence-based assay. Fluorescence was measured at 465 nm. Results shown are the average and standard deviation of triplicate transfections (this experiment was repeated two more times with similar results).
HeLa cells were co-transfected with the β-galactosidase gene and either wild-type BAD, BAD S155A, BAD S112A/S136A or BAD S112A/S136A/S155A. […] Cell lysates were prepared and BAD-induced cell death was measured by the loss of β-galactosidase activity in a fluorescence-based assay. […]
To measure β-gal activity, HeLa cells were plated in 12-well plates at 5×10^4 cells/well one day prior to transfection. […] Beta-gal activity was measured in extracts using a fluorogenic substrate (MUG, BIO-RAD FluorAce™ β-gal Reporter Assay, #170–3150). […]

B1: BAD S155A: mutant of shorter murine BAD, serine corresponding to Ser155 substituted with alanine; HA- or GST-tagged (protein)
chain: MFQIPEFEPSEQEDASATDRGLGPSLTEDQPGPYLAPGLLGSNIHQQGRAATNSHHGGAGAMETRSRHSSYPAGTEEDEGMEEELSPFRGRSRSAPPNLWAAQRYGRELRRMADEFEGSFKGLPRPKSAGTATQMRQSAGWTRIIQSWWDRNLGKGGSTPSQ
modifications: left off: small tags and cut ends
notes: mutant of shorter murine BAD, serine corresponding to Ser155 substituted with alanine; HA- or GST-tagged
reduction of PKA catalyzed 32P-ATP incorporation ([1]; compared to the wild-type mammalian BAD substrate): more than 90%
in vitro phosphorylation by PKA [1]: low, but detectable level
in vitro phosphorylation by PKA ([1]; listed as GST-BAD S155A): dramatically reduced the phosphorylation
effect of EGF stimulation on pro-apoptotic activity of the BAD mutant [2]: does not eliminate the protective effect of EGF
